Data from US20140030731.

B1: endogenous human ROCKII, Ser^1366 phosphorylated (HEK-293T cell extracts; human breast tumor tissue) (protein)
chain: MSRPPPTGKMPGAPETAPGDGAGASRQRKLEALIRDPRSPINVESLLDGLNSLVLDLDFPALRKNKNIDNFLNRYEKIVKKIRGLQMKAEDYDVVKVIGRGAFGEVQLVRHKASQKVYAMKLLSKFEMIKRSDSAFFWEERDIMAFANSPWVVQLFYAFQDDRYLYMVMEYMPGGDLVNLMSNYDVPEKWAKFYTAEVVLALDAIHSMGLIHRDVKPDNMLLDKHGHLKLADFGTCMKMDETGMVHCDTAVGTPDYISPEVLKSQGGDGFYGRECDWWSVGVFLYEMLVGDTPFYADSLVGTYSKIMDHKNSLCFPEDAEISKHAKNLICAFLTDREVRLGRNGVEEIRQHPFFKNDQWHWDNIRETAAPVVPELSSDIDSSNFDDIEDDKGDVETFPIPKAFVGNQLPFIGFTYYRENLLLSDSPSCRETDSIQSRKNEESQEIQKKLYTLEEHLSNEMQAKEELEQKCKSVNTRLEKTAKELEEEITLRKSVESALRQLEREKALLQHKNAEYQRKADHEADKKRNLENDVNSLKDQLEDLKKRNQNSQISTEKVNQLQRQLDETNALLRTESDTAARLRKTQAESSKQIQQLESNNRDLQDKNCLLETAKLKLEKEFINLQSALESERRDRTHGSEIINDLQGRICGLEEDLKNGKILLAKVELEKRQLQERFTDLEKEKSNMEIDMTYQLKVIQQSLEQEEAEHKATKARLADKNKIYESIEEAKSEAMKEMEKKLLEERTLKQKVENLLLEAEKRCSLLDCDLKQSQQKINELLKQKDVLNEDVRNLTLKIEQETQKRCLTQNDLKMQTQQVNTLKMSEKQLKQENNHLMEMKMNLEKQNAELRKERQDADGQMKELQDQLEAEQYFSTLYKTQVRELKEECEEKTKLGKELQQKKQELQDERDSLAAQLEITLTKADSEQLARSIAEEQYSDLEKEKIMKELEIKEMMARHKQELTEKDATIASLEETNRTLTSDVANLANEKEELNNKLKDVQEQLSRLKDEEISAAAIKAQFEKQLLTERTLKTQAVNKLAEIMNRKEPVKRGNDTDVRRKEKENRKLHMELKSEREKLTQQMIKYQKELNEMQAQIAEESQIRIELQMTLDSKDSDIEQLRSQLQALHIGLDSSSIGSGPGDAEADDGFPESRLEGWLSLPVRNNTKKFGWVKKYVIVSSKKILFYDSEQDKEQSNPYMVLDIDKLFHVRPVTQTDVYRADAKEIPRIFQILYANEGESKKEQEFPVEPVGEKSNYICHKGHEFIPTLYHFPTNCEACMKPLWHMFKPPPALECRRCHIKCHKDHMDKKEEIIAPCKVYYDISTAKNLLLLANSTEEQQKWVSRLVKKIPKKPPAPDPFARSSPRTSMKIQQNQSIRRPSRQLAPNKPS
B2: endogenous human ROCKI, Ser^1333 phosphorylated (HEK-293T cell extracts) (protein)
chain: STGDSFETRFEKMDNLLRDPKSEVNSDCLLDGLDALVYDLDFPALRKNKNIDNFLSRYKDTINKIRDLRMKAEDYEVVKVIGRGAFGEVQLVRHKSTRKVYAMKLLSKFEMIKRSDSAFFWEERDIMAFANSPWVVQLFYAFQDDRYLYMVMEYMPGGDLVNLMSNYDVPEKWARFYTAEVVLALDAIHSMGFIHRDVKPDNMLLDKSGHLKLADFGTCMKMNKEGMVRCDTAVGTPDYISPEVLKSQGGDGYYGRECDWWSVGVFLYEMLVGDTPFYADSLVGTYSKIMNHKNSLTFPDDNDISKEAKNLICAFLTDREVRLGRNGVEEIKRHLFFKNDQWAWETLRDTVAPVVPDLSSDIDTSNFDDLEEDKGEEETFPIPKAFVGNQLPFVGFTYYSNRRYLSSANPNDNRTSSNADKSLQESLQKTIYKLEEQLHNEMQLKDEMEQKCRTSNIKLDKIMKELDEEGNQRRNLESTVSQIEKEKMLLQHRINEYQRKAEQENEKRRNVENEVSTLKDQLEDLKKVSQNSQLANEKLSQLQKQLEEANDLLRTESDTAVRLRKSHTEMSKSISQLESLNRELQERNRILENSKSQTDKDYYQLQAILEAERRDRGHDSEMIGDLQARITSLQEEVKHLKHNLEKVEGERKEAQDMLNHSEKEKNNLEIDLNYKLKSLQQRLEQEVNEHKVTKARLTDKHQSIEEAKSVAMCEMEKKLKEEREAREKAENRVVQIEKQCSMLDVDLKQSQQKLEHLTGNKERMEDEVKNLTLQLEQESNKRLLLQNELKTQAFEADNLKGLEKQMKQEINTLLEAKRLLEFELAQLTKQYRGNEGQMRELQDQLEAEQYFSTLYKTQVKELKEEIEEKNRENLKKIQELQNEKETLATQLDLAETKAESEQLARGLLEEQYFELTQESKKAASRNRQEITDKDHTVSRLEEANSMLTKDIEILRRENEELTEKMKKAEEEYKLEKEEEISNLKAAFEKNINTERTLKTQAVNKLAEIMNRKDFKIDRKKANTQDLRKKEKENRKLQLELNQEREKFNQMVVKHQKELNDMQAQLVEECAHRNELQMQLASKESDIEQLRAKLLDLSDSTSVASFPSADETDGNLPESRIEGWLSVPNRGNIKRYGWKKQYVVVSSKKILFYNDEQDKEQSNPSMVLDIDKLFHVRPVTQGDVYRAETEEIPKIFQILYANEGECRKDVEMEPVQQAEKTNFQNHKGHEFIPTLYHFPANCDACAKPLWHVFKPPPALECRRCHVKCHRDHLDKKEDLICPCKVSYDVTSARDMLLLACSQDEQKKWVTHLVKKIPKNPPSGFVRASPRTLSTRSTANQSFRKVVKNTSGKTS

Columns and labels:
[1] = molecular target: GFP-RhoAV14E40L (constitutively active mutant of RhoA defective in its interaction with ROCK), P61586
Sequence of GFP-RhoAV14E40L (constitutively active mutant of RhoA defective in its interaction with ROCK), P61586 (P61586 other isoform, or with tags, fused parts or gaps mutant): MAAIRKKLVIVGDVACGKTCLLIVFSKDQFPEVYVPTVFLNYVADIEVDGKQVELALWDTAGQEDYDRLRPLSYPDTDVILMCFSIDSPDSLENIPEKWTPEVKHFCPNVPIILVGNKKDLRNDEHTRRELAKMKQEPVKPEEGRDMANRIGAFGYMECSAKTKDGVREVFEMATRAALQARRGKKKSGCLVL

[2] = molecular target: constitutively active GFP-RhoAV14, P61586
Sequence of constitutively active GFP-RhoAV14, P61586 (P61586 other isoform, or with tags, fused parts or gaps): as the sequence (P61586 other isoform, or with tags, fused parts or gaps mutant) above, with L40E counted along it

Protein | level of ROCKII Ser^1366 phosphorylation (Western blotting with antibody-II, HEK-293T extracts) [1] | level of ROCK Ser^1366 phosphorylation (Western blotting with antibody-II, HEK-293T extracts) [2] | level of ROCKI Ser^1333 phosphorylation (Western blotting with antibody-I, HEK-293T extracts) [2]
B1 | neither GFP-RhoAV14E40L nor GFP-RhoAN19 transfection shows no the enhancement of RCOKII Ser^1366 phosphorylation | the level of ROCK Ser^1366 phosphorylation in the GFP-RhoAV14 expression cells was enhanced | –
B2 | – | – | the changes on the level of ROCKI Ser^1333 phosphorylaion also indeed enhanced due to RhoA activation
